Test results: IntAct's records for PubMed 23454188

B1: GTPase IMAP family member 7 (Homo sapiens), Q8NHV1 (parent)
chain: MAESEDRSLRIVLVGKTGSGKSATANTILGEEIFDSRIAAQAVTKNCQKASREWQGRDLLVVDTPGLFDTKESLDTTCKEISRCIISSCPGPHAIVLVLLLGRYTEEEQKTVALIKAVFGKSAMKHMVILFTRKEELEGQSFHDFIADADVGLKSIVKECGNRCCAFSNSKKTSKAEKESQVQELVELIEKMVQCNEGAYFSDDIYKDTEERLKQREEVLRKIYTDQLNEEIKLVEEDKHKSEEEKEKEIKLLKLKYDEKIKNIREEAERNIFKDVFNRIWKMLSEIWHRFLSKCKFYSS

Variants of: B1
Settings: with gima2_human GIMAP2, Q9UG22
Sequence of gima2_human GIMAP2, Q9UG22 (Q9UG22 whole entry): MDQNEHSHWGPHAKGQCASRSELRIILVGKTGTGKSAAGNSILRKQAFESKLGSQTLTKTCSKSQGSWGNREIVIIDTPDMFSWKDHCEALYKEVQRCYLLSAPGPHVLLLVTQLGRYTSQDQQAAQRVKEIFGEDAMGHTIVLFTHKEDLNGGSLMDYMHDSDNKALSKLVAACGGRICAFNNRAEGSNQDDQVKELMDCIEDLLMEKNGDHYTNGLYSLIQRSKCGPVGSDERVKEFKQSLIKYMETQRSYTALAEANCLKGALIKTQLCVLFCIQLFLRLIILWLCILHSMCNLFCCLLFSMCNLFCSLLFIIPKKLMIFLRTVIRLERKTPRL

**Q.** For MAESEDRSLRIVLVGKTGSGKSATANTILGEEIFDSRIAAQAVTKNCQKASREWQGRDLLVVDTPGLFDTKESLDTTCKEISRCIISSCPGPHAIVLVLLLGRYTEEEQKTVALIKAVFGKSAMKHMVILFTRKEWLEGQSFHDFIADADVGLKSIVKECGNRCCAFSNSKKTSKAEKESQVQELVELIEKMVQCNEGAYFSDDIYKDTEERLKQREEVLRKIYTDQLNEEIKLVEEDKHKSEEEKEKEIKLLKLKYDEKIKNIREEAERNIFKDVFNRIWKMLSEIWHRFLSKCKFYSS [E136W], which “effect of a mutation on the interaction” value is on record?
**A.** decreasing interaction strength

**Q.** With MAESEDRSLRIVLVGKTGSGKSATANTILGEEIFDSRIAAQAVTKNCQKASREWQGRDLLVVDTPGLFDTKESLDTTCKEISRCIISSCPGPHAIVLVLLLGDYTEEEQKTVALIKAVFGKSAMKHMVILFTRKEELEGQSFHDFIADADVGLKSIVKECGNRCCAFSNSKKTSKAEKESQVQELVELIEKMVQCNEGAYFSDDIYKDTEERLKQREEVLRKIYTDQLNEEIKLVEEDKHKSEEEKEKEIKLLKLKYDEKIKNIREEAERNIFKDVFNRIWKMLSEIWHRFLSKCKFYSS [R103D] as the variant, how does the “effect of a mutation on the interaction” value read?
**A.** disrupting interaction strength
